Tested on: Escherichia coli TOP10
Assay: shrunken log2 fold change of peptide-encoding DNA abundance (4.5 h post-induction vs induction); higher = less antimicrobial activity (less host growth inhibition)
Conditions: time post-induction: 4.5 h; library: site-saturation at positions 5, 18, 19, 20
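Note: peptides expressed intracellularly from a pBAD plasmid library in pooled LB shake-flask culture, induced with 0.3% L-arabinose, DNA abundance read by NGS, three biological replicates, DESeq2 with apeglm shrinkage.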

Sequence | shrunken log2 fold change
RRIRHRPPRLPRPRPRPLSSPRP | 0.0305
RRIRHRPPRLPRPRPRPLTYPRP | -0.402
RRIRHRPPRLPRPRPRPLVFPRP | -0.29
RRIRHRPPRLPRPRPRPLWEPRP | 0.0119
RRIRHRPPRLPRPRPRPMASPRP | -0.0864
RRIRHRPPRLPRPRPRPMCIPRP | -0.162
RRIRHRPPRLPRPRPRPMCLPRP | -0.0755
RRIRHRPPRLPRPRPRPMDTPRP | 0.03
RRIRHRPPRLPRPRPRPMEHPRP | -0.337
RRIRHRPPRLPRPRPRPMFIPRP | -0.0886
RRIRHRPPRLPRPRPRPMGAPRP | 0.0492
RRIRHRPPRLPRPRPRPMHEPRP | 0.0983
RRIRHRPPRLPRPRPRPMHTPRP | 0.0398
RRIRHRPPRLPRPRPRPMKRPRP | 0.0794
RRIRHRPPRLPRPRPRPMLVPRP | -0.155
RRIRHRPPRLPRPRPRPMNTPRP | -0.616
RRIRHRPPRLPRPRPRPMPLPRP | -0.0217
RRIRHRPPRLPRPRPRPMRSPRP | -0.00134
RRIRHRPPRLPRPRPRPMSRPRP | -0.0252
RRIRHRPPRLPRPRPRPMWDPRP | -0.0134
RRIRHRPPRLPRPRPRPNCDPRP | -0.264
RRIRHRPPRLPRPRPRPNDGPRP | -0.134

Sequence | shrunken log2 fold change
RRIRHRPPRLPRPRPRPNDWPRP | 0.339
RRIRHRPPRLPRPRPRPNGWPRP | 0.42
RRIRHRPPRLPRPRPRPNHIPRP | -0.844
RRIRHRPPRLPRPRPRPNHRPRP | -0.0366
RRIRHRPPRLPRPRPRPNIDPRP | -0.153
RRIRHRPPRLPRPRPRPNILPRP | -0.448
RRIRHRPPRLPRPRPRPNKGPRP | -0.174
RRIRHRPPRLPRPRPRPNLDPRP | -1.17
RRIRHRPPRLPRPRPRPNLLPRP | -0.13
RRIRHRPPRLPRPRPRPNMAPRP | -0.0808
RRIRHRPPRLPRPRPRPNMDPRP | -0.173
RRIRHRPPRLPRPRPRPNMTPRP | 0.0729
RRIRHRPPRLPRPRPRPNNGPRP | 0.0142
RRIRHRPPRLPRPRPRPNNIPRP | -1.2
RRIRHRPPRLPRPRPRPNPSPRP | -0.0145
RRIRHRPPRLPRPRPRPNTEPRP | -0.038
RRIRHRPPRLPRPRPRPNVNPRP | -0.555
RRIRHRPPRLPRPRPRPNVYPRP | -0.149
RRIRHRPPRLPRPRPRPNWDPRP | -0.332
RRIRHRPPRLPRPRPRPNWFPRP | -0.0203
RRIRHRPPRLPRPRPRPNWHPRP | -0.242
RRIRHRPPRLPRPRPRPNWIPRP | -0.19

Sequence | shrunken log2 fold change
RRIRHRPPRLPRPRPRPNWKPRP | -0.0172
RRIRHRPPRLPRPRPRPNWSPRP | -0.0165
RRIRHRPPRLPRPRPRPNWVPRP | -0.126
RRIRHRPPRLPRPRPRPNWYPRP | -0.928
RRIRHRPPRLPRPRPRPNYDPRP | -0.471
RRIRHRPPRLPRPRPRPPEFPRP | -0.0433
RRIRHRPPRLPRPRPRPPHNPRP | 0.348
RRIRHRPPRLPRPRPRPPHRPRP | 0.198
RRIRHRPPRLPRPRPRPPHSPRP | 0.0314
RRIRHRPPRLPRPRPRPPIEPRP | -0.809
RRIRHRPPRLPRPRPRPPLSPRP | -0.0738
RRIRHRPPRLPRPRPRPPNIPRP | -0.157
RRIRHRPPRLPRPRPRPPNNPRP | -0.58
RRIRHRPPRLPRPRPRPPPAPRP | 1.07
RRIRHRPPRLPRPRPRPPPNPRP | 0.814
RRIRHRPPRLPRPRPRPPPYPRP | 0.00808
RRIRHRPPRLPRPRPRPPQKPRP | 0.0508
RRIRHRPPRLPRPRPRPPRMPRP | 0.284
RRIRHRPPRLPRPRPRPPSAPRP | 0.496
RRIRHRPPRLPRPRPRPPSEPRP | -0.0921
RRIRHRPPRLPRPRPRPPTQPRP | 0.137
RRIRHRPPRLPRPRPRPPVGPRP | 0.183

Sequence | shrunken log2 fold change
RRIRHRPPRLPRPRPRPPVPPRP | 0.441
RRIRHRPPRLPRPRPRPPWEPRP | 0.193
RRIRHRPPRLPRPRPRPPWHPRP | -0.0707
RRIRHRPPRLPRPRPRPPYCPRP | -0.0539
RRIRHRPPRLPRPRPRPPYFPRP | -0.366
RRIRHRPPRLPRPRPRPQCAPRP | 0.191
RRIRHRPPRLPRPRPRPQFQPRP | -0.511
RRIRHRPPRLPRPRPRPQHTPRP | -0.386
RRIRHRPPRLPRPRPRPQISPRP | -0.0457
RRIRHRPPRLPRPRPRPQKSPRP | -0.138
RRIRHRPPRLPRPRPRPQKTPRP | 0.00246
RRIRHRPPRLPRPRPRPQLRPRP | -0.343
RRIRHRPPRLPRPRPRPQNHPRP | -0.922
RRIRHRPPRLPRPRPRPQPAPRP | -0.0767
RRIRHRPPRLPRPRPRPQPHPRP | -0.0753
RRIRHRPPRLPRPRPRPQQHPRP | -0.384
RRIRHRPPRLPRPRPRPQREPRP | -0.0507
RRIRHRPPRLPRPRPRPQRIPRP | -0.00331
RRIRHRPPRLPRPRPRPQSCPRP | -0.0062
RRIRHRPPRLPRPRPRPQTQPRP | -0.145
RRIRHRPPRLPRPRPRPQYFPRP | -0.439
RRIRHRPPRLPRPRPRPQYHPRP | -0.972

Sequence | shrunken log2 fold change
RRIRHRPPRLPRPRPRPRAWPRP | 0.0709
RRIRHRPPRLPRPRPRPRCKPRP | -0.053
RRIRHRPPRLPRPRPRPRCLPRP | -0.169
RRIRHRPPRLPRPRPRPRDEPRP | -0.0872
RRIRHRPPRLPRPRPRPRDKPRP | -0.132
RRIRHRPPRLPRPRPRPRDMPRP | 0.137
RRIRHRPPRLPRPRPRPRDTPRP | 0.123
RRIRHRPPRLPRPRPRPRETPRP | 0.0714
RRIRHRPPRLPRPRPRPRFSPRP | -0.137
RRIRHRPPRLPRPRPRPRGDPRP | 0.263
RRIRHRPPRLPRPRPRPRGKPRP | -0.241
RRIRHRPPRLPRPRPRPRHGPRP | -0.0477
RRIRHRPPRLPRPRPRPRIYPRP | -0.584
RRIRHRPPRLPRPRPRPRKGPRP | 0.236
RRIRHRPPRLPRPRPRPRMGPRP | -0.00555
RRIRHRPPRLPRPRPRPRNKPRP | -0.2
RRIRHRPPRLPRPRPRPRNLPRP | 0.0727
RRIRHRPPRLPRPRPRPRNPPRP | 0.0812
RRIRHRPPRLPRPRPRPRPMPRP | -0.00237
RRIRHRPPRLPRPRPRPRPYPRP | 0.0624
RRIRHRPPRLPRPRPRPRQLPRP | 0.0862

From the supplement of paper PMC9112550, “Optimization of the antimicrobial peptide Bac7 by deep mutational scanning” (BMC Biology, 2022)
